# Measurements: the nanobody polyreactivity screen of Harvey et al. (2022)
# Assay: yeast display, Sf9 membrane polyspecificity reagent, FACS + sequencing; frameworks hold sequencing errors
# Outline: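 Genes from sorted yeast were amplified by colony PCR, read by MiSeq 2 × 250 sequencing and filtered on CDR length. These cells carried a synthetic nanobody library in Saccharomyces cerevisiae BJ5465 and were sorted by FACS into low and high (top ~1%) gates on anti-HA and streptavidin fluorescence. Polyreactivity is labelled according to the gate of origin.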
sequence,measurement,value
QVQLVESGGGLVQAGGSLRLSCAASGRTFTFYTMGWDRQAPGKERELVARITGGGSTYYADSVKGRFTISRDNAKNTVYLQMNSLKPEDTAVYYCAAASGTKRLYRGTRGDYWGQGTQVTVSS,polyreactivity (PSR sort gate),low polyreactivity
QVQLVESGGGLVHAGGSLRLSCAASGSIFTFYTMGWYRQAPGKERELVAAINWSGSRTYYADSVKGRFTISRDNAKNTVYLQMNSLKPEDTAVYYCAAYYYTGPTTVESDYWGQGTQVTVSS,polyreactivity (PSR sort gate),high polyreactivity
QVQLVESGGGLVQAGGSLRLSCAASGRTFYSYVMGWYRQAPGKERELVAAINKTGGGTYYADSVKGRFTISRDNAKNTVYLQMNSLKPEDTAVYYCAAETGTGETRYYRYWDYYYWGQGTQVTVSS,polyreactivity (PSR sort gate),high polyreactivity
QVQLVESGGGLVQAGGSLRLSCAASGYTFWLYAMGWYRQAPGKERELVATISRRAGTTYYADSVKGRFTISRDNAKNTVYLQMNSLKPEDTAVYYCNTDGYPRLYIYDYWGQGTQVTVSS,polyreactivity (PSR sort gate),low polyreactivity
QVQLVESGGGLVQAGGSLRLSCAASGTFYGKTMGWYRQAPGKERELDAVISIDGSTNYADSVKGRFTISRDNAKKTVYLQMNSLKPEDTAVYYCNARNQWRTVGKYDYWGQGTQVTVSS,polyreactivity (PSR sort gate),low polyreactivity
QVQLVESGGGLVQAGGSLRLSCAASGRIFQYYTMGWNRQAPGKERELVAAITYSGGDTRYADSVKGRFTISRDTAKNTVYLQMNSLKPEDTAVYYCAADYFDQYQYGVWTYGYWGQGTQVTVSS,polyreactivity (PSR sort gate),low polyreactivity
QVQLVESGGGLVQAGGSLRLSCAASGSNFKTYAMGLYRQAPGKERELVAAISSGGSTYYADSVKGRFTISRDNAKITVYLQMNSLKPEDTAVYYCAADPWGAFVSFASYYYWGQATQVTVSS,polyreactivity (PSR sort gate),low polyreactivity
QVQLVESGGGLVQAGGSLRLSCVASGLTQPSAIGWYRHAPGKERELVPRISWRGASTYYADSVKGRFTISRDTAKNNFYLQINSLKPEDTAVYYCAARSTIQRRGYYGYRVGRSEYGYWGQGTQVTVSS,polyreactivity (PSR sort gate),low polyreactivity
QVQLVESAAGLVQAGGSLRLSCPASGITFYYYAKGWYRQEPGKESELVAAISGGGDSTYYADSVKGRFTISRDNAKNTVYLQMNSLKPEDTAVYYCAAGQDYWVPDDSLFYYWGQGTQVTVSS,polyreactivity (PSR sort gate),low polyreactivity
QVQLVESGGGLVQAGGSLRLSCAASGFIFATNTMGWYRQAPGKERELVAASSTYYADSVKGRFTISRDNAKNTVYLQMNSLKPEDTAVYYCNADRDSYIGFVVWAGEYWGQGSQVTVSS,polyreactivity (PSR sort gate),low polyreactivity
QFQLVESGGGLVQARGSLRLSCAASGITFPVYAMGWYRQAPGKEREFVASIRFSTGRTYYADSVKGRFTISRDNAKNTVYLQINSLKPEDTAVYYCRGSTQSPYNSWGQGTQVTVSS,polyreactivity (PSR sort gate),high polyreactivity
QVQLVESGGGLVQAGGSLRLSCAASGRTFNTYDMGWYRQAPGKERELVAAITSRGGTTYYADSVKGRFTITRDNAKNTVYLQMNSLKPEDTAVSYCAADYYSWDYQYDYDYWGQGTQVTVSS,polyreactivity (PSR sort gate),low polyreactivity
QVQLVESGGGLVQAGGSLRLSCAASGFTFRYYTMGWYRQAPGKERELVAAITWSGGSTYYADSVKGRFTISRDNAKNTVYLQMNSLKPEDTAVYYCNAYPSYVSFDYWGQGTQVTVSS,polyreactivity (PSR sort gate),high polyreactivity
QVQLVESGGGVVQAGGSLRLSCAASGFTFGLYAMGWYRQAPGKERELVAVISSSGGSTYYADSVKGRFTISRDNAKNTVYLQMNSLKPEDTAVYYCAAEWHDYKFDVTYDYWGQGTQVTVSS,polyreactivity (PSR sort gate),low polyreactivity
QVQLVESGGGLVQAGGSLPLSCAASGGTFYKYAMGWYRQAPGKERELVARISRGGSTYYADSVKGRFTISRDNAKNTVYLQMTSLKPEDTAVYYCAKLWYAVWPIVVQYNYWGQGTQVNVSS,polyreactivity (PSR sort gate),high polyreactivity
QVQLVESAGGLVQAGGSLSIICAASGFTFYGYTMGWYRQAPGKERELVAAITSDGDTNYADSVKGRFTISRDNAKNTVYLQMISLKPVDTAVYYCNADPGYYFYWWPGDYWGQGTQLTVSS,polyreactivity (PSR sort gate),low polyreactivity
QVQLVESGGGLVQAGGSLRLSCAASGRIFRRYAMGWYRQAPGTERELVAAITASGGITYYADSVKGRFTISRDNAKNTVYLQMNSLKPEDTAVYYCAARGSSGYDYWGQGTQVTVSS,polyreactivity (PSR sort gate),high polyreactivity
QVQLVESGGGLVQAGGSLRLSCAASGSTLAYNAMGWYRQAPGKERELVAAISSNGDSTYYADSVKGRFTISRDNAKNTVYLQMNSLKPEDTAVYYCAAGYYSRYYEAFEYYYWGQGTQVTVSS,polyreactivity (PSR sort gate),high polyreactivity
QVQLVETGGGLVHAGGSLRLSCAASGSILRPNAMGWYRQAPGKERELVAAITTSGGSTYYADSVKGRFTISRDNAKNTVYLQMNSLKPEDTAVYYCAAEYVYYYYLYLYYYWGQGTQVTVSS,polyreactivity (PSR sort gate),high polyreactivity
QVQLVESGGGLVQAGGSLRLSCAASGFIFGRYAMGWYRQAPGKERELVAAITWSGGRTYYADSVKGRFTISRDNAKNTVFLQMNSLKPEDTAVYYCNAQGYTTYRGDYWGQGTQVTVSS,polyreactivity (PSR sort gate),high polyreactivity
QVQIVESGGGLVQAGGILRLSCAASGRIFWRNAMGWYRQAPGKEREFVAAITYTAGRTYYADSVKGRFTISRDNSKITVYLQMNSLKPEDTAVYYCAAGSRRPGGTGYDHWVQGTQVTVSS,polyreactivity (PSR sort gate),low polyreactivity
QVQLVESGGGLVQAGGSLRLSCAASGHTFAYNAMGWYRQAPGKEREFVAAITWSTDNTYYADSVKGRFTISRDYAKYTVYLQMNSLKPEDTAVYYCAVDVYFYYRHYGYWGQGTQVTVSS,polyreactivity (PSR sort gate),low polyreactivity
QVQLVESGGGLVQAGGSLRLSCAASGFIFANYVMGWYRQAPGKERELVAAITYSGNTYYADSVKGRFTISRDNAKNTVYLQMNSLKPVDTAVYYCNADYVEGGLPGYDFDYWGQGTQVTVSS,polyreactivity (PSR sort gate),low polyreactivity
QVQLVESGGGLVQAGGSLRLSCAASGSTLYYYAMGWYRQAPGKERELVAAITYSGGNTYYADSVKGRFTISRDNAKNTVYFQMNSLKPEDTAVYYCAADDWSSDYIRYEYWGQGTQVTVSS,polyreactivity (PSR sort gate),low polyreactivity
QVQLVESGGGLVQAGGSLRLSCAASGISFGNYAMGWYRQAPGKERELVATISRSGGSTYYADSVKGRFTISRDNAKNTVYLQMNSLKPEDTAVYYCAAQDARRIVYYRYYYWGQGTQVTVSS,polyreactivity (PSR sort gate),high polyreactivity
QVQLVESGGGLVQAGGSLRLSCAASGFNFRYYAMGWYRQAPGKERELVAAISASSGRTYYADSVKGRFTISRDNAKNTVYLQMNSLKPEDTAVYYCAAEYIRNGDYGLDYWGQGTQVTVSS,polyreactivity (PSR sort gate),high polyreactivity
QVQLVESGGGLVQAGGSLRLSCAASGYTFPRYAMGWYRQAPGKERELVAAITWSGGSTYYADSVKGRFTISRDNAKNTVYLQMNSLKPEDTAVYYCNTDRYHRVDFDYWGQGTQVTVSS,polyreactivity (PSR sort gate),high polyreactivity
QVQLVESVGGLVQAGGSLRLSGADSGITFGVYAMGWYRQAPGKVRELVAAICVSGGSTYYADSVKGRFTISRDNAKNTVYLHMNSLKPEVTAVYYCAADRYGHFGYWGQGTQVTLSS,polyreactivity (PSR sort gate),high polyreactivity
QDQLVESGGGLVQAGGSLRLSCAASGFIFGYYAMGWYRQAPGKERDLFAAINKNGGSTYYADSVKGRFTISRDNAKNTFYLQRNSLIPEDTAVYYCASRARGYAWTYDYWGQGTQVTVSS,polyreactivity (PSR sort gate),high polyreactivity
QVQLVESGGGLVQAGGSLRLSCAASGSTFYAYAMGWYRQAPGKERELVAAIDSGGSTYYADSVKGRFPISRDNAKNTVYFQMNSLNPEDTAVYYCAVRHRYTRAYWGRDYWGQGTQVTVSS,polyreactivity (PSR sort gate),low polyreactivity
QVQLVESGGGLVQAGGSLRLSCAASGRIFVYNTMGWYRQAPGKERELVAAITSGGNTYYADSVKGRFTISRDNAKNSVYLQMNSLKPEDTAVYYCNAYPGYDPYRRYDYWGQGTQVTVSS,polyreactivity (PSR sort gate),high polyreactivity
QVQLVESGGGLVQAGGSLRLSCAASGSTFDGNAMGWYRQAPGKERELVAAITYTTSSTYYADSVKGRFTISRDNAKNTVYLQMNSLKPEDTAVYYCAAGVNYRSPGVSKGRDYWGQGTQVTVSS,polyreactivity (PSR sort gate),low polyreactivity
HVQLVESGGGLVQAGGSLRVSCAASGSILTRNAMGWYRQAPGKERELVAAITGSGGRTYYADSVKGRFTISRDNAKNTVDLQMNSLKPEDTAVYYCAAGWRFGRYSGDYWGQGTQVTVSS,polyreactivity (PSR sort gate),high polyreactivity
QVQLVESGGGLVQAGGSLRLSCAASGSTFTDYDMGWYRQAPGKERELVAAITSGGSTNYADSVKGRFTISRDNAKNTVYLQMISLKPEDTAVYYCAAADADRKYDYWGQGTQVTVSS,polyreactivity (PSR sort gate),low polyreactivity
QVQLVESGGGLVQAGGSLRLSCAASGRTFWYYTMGWYRQAPGKERELVAAISRSGGSTYYADSVKGRFTISRDNAKNTVYLQMNSLKPEDSAVYFCAAGVQSSVYPYYRFDYWGQGTQVTVSS,polyreactivity (PSR sort gate),high polyreactivity
QVQLVESGGGLVQAGGSLRLICAASGSTFGDYDMGWYRQAPGKETELVAAISNGGSTYYADSVKGRFTISRDYAKNTVYLQMNSLKREETAVYYCNADNVEIRSTYEYGRYLYGYWGQGTQVTVSS,polyreactivity (PSR sort gate),low polyreactivity
QVQLVESGRGLLQAGGSLRLSCAASGRIFTRYAMGWYRQAPGKERELVAAISSGGGNTYYADSVKGRFTISRYNAKNTVYLQMNILKPEDTAVYYCAALRSWRKTGGAQRYWYDYWGQGTQVTVLS,polyreactivity (PSR sort gate),high polyreactivity
QVQLVESGGGLVQAGASLRLSCAASGIIFYANAMGWYRQAPGTERELVAAITFSGGSTYYADSVKGRFTISRDNAKNTVYLQMNSLKPEDTAVYYCAADKRFIPPHPHPLEFDYWGQGTQVTVSS,polyreactivity (PSR sort gate),low polyreactivity
QVQLVESGGGLVQAGGSLRLSCAASGLIFQTYAMGWYRQAPGKERELVATISGSTGGTYYADSVKGRFTISRDNAKNTVYLQMNSLKPEDTAVYYCNASVFQSEYDYWGQGTQVTVSS,polyreactivity (PSR sort gate),low polyreactivity
QVQLVESGGGLVQAGGSLRLICAASGLTFYVYAMGWYRQAPGKERELVAAISQRGGSTYYADSVKGRFKISRDNAKNTVYLQMNSLNPEDTAVYYCAKYTVQYAISHYDYWGQGTQVTVSS,polyreactivity (PSR sort gate),high polyreactivity
QVQLVESGGGLVQAGGSLRLSCAASGSIFSYYAMGWYRQAPGKERELVASISWNGTSTYYADSVKGRFTISRDNAKNTVDLQMNSLKPEDTADYYCNVRFNYRGTYDYWGQGTQVTVSS,polyreactivity (PSR sort gate),low polyreactivity
QVQLVESGGGLVQAGGSLRLSCAASGSTFNAYVMGWYRQAPGKERELVAAITRGGSTNYADSVKGRFTISRDNAKNTVYLQMNSLKPEDTAVYDCAARGPWVIPYDYWGQGTQVTVSS,polyreactivity (PSR sort gate),low polyreactivity
QVQLVESGGGLVQAGGSLRLSCAASGFIFIPNTMGWYRQAPGKERELVASGSTYYADSVKGRFTISRDNAKNTVYLQLNSLKPEDTAVYYCAARYHRYSSEFDYWGQGTQVTVSS,polyreactivity (PSR sort gate),low polyreactivity
